Test results: patent publication US8530168B2, “Fusion protein comprising a Caspase domain and a nuclear hormone receptor binding domain and methods and uses thereof” (Helmholtz Zentrum Munich Deutsches Forschungszentrum fuer …, priority 2007, dated 2013)
“Also recorded” adds a separate entry of the source.

B1: Casp3-ED4ER(T2): full length murine Caspase-3 fused directly to N-terminal shortened ER(T2) domain, SEQ ID NO: 41 (protein)
chain: MENNKTSVDSKSINNFEVKTIHGSKSVDSGIYLDSSYKMDYPEMGICIIINNKNFHKSTGMSSRSGTDVDAANLRETFMGLKYQVRNKNDLTREDILELMDSVSKEDHSKRSSFVCVILSHGDEGVIYGTNGPVELKKLTSFFRGDYCRSLTGKPKLFIIQACRGTELDCGIETDSGTDEEMACQKIPVEADFLYAYSTAPGYYSWRNSKDGSWFIQSLCSMLKLYAHKLEFMHILTRVNRKVATEFESFSLDSTFHAKKQIPCIVSMLTKELYFYHLESLALSLTADQMVSALLDAEPPILYSEYDPTRPFSEASMMGLLTNLADRELVHMINWAKRVPGFVDLTLHDQVHLLECAWLEILMIGLVWRSMEHPVKLLFAPNLLLDRNQGKCVEGMVEIFDMLLATSSRFRMMNLQGEEFVCLKSIILLNSGVYTFLSSTLKSLEEKDHIHRVLDKITDTLIHLMAKAGLTLQQQHQRLAQLLLILSHIRHMSNKGMEHLYSMKCKNVVPLYDLLLEAADAHRLHAPTSRGGASVEETDQSHLATAGSTSSHSLQKYYITGEAEGFPATA
modifications: fusion gene Casp3-ED4ER(T2)
B2: Casp9trunc-ER(T2): truncated murine Caspase-9 without CARD domain fused to ER(T2) ligand binding domain, SEQ ID NO: 32 (protein)
chain: MGRQAAKQDPEAVKPLDHLVPVVLGPMGLTAKEQRVVKLDPSQPAVGNLTPVVLGPEELWPARLKPEVLRPETPRPVDIGSGGAHDVCVPGKIRGHADMAYTLDSDPCGHCLIINNVNFCPSSGLGTRTGSNLDRDKLEHRFRWLRFMVEVKNDLTAKKMVTALMEMAHRNHRALDCFVVVILSHGCQASHLQFPGAVYGTDGCSVSIEKIVNIFNGSGCPSLGGKPKLFFIQACGGEQKDHGFEVACTSSQGRTLDSDSEPDAVPYQEGPRPLDQLDAVSSLPTPSDILVSYSTFPGFVSWRDKKSGSWYIETLDGILEQWARSEDLQSLLLRVANAVSAKGTYKQIPGCFNFLRKKLFFKTSVEPSAGDMRAANLWPSPLMIKRSKKNSLALSLTADQMVSALLDAEPPILYSEYDPTRPFSEASMMGLLTNLADRELVHMINWAKRVPGFVDLTLHDQVHLLECAWLEILMIGLVWRSMEHPVKLLFAPNLLLDRNQGKCVEGMVEIFDMLLATSSRFRMMNLQGEEFVCLKSIILLNSGVYTFLSSTLKSLEEKDHIHRVLDKITDTLIHLMAKAGLTLQQQHQRLAQLLLILSHIRHMSNKGMEHLYSMKCKNVVPLYDLLLEAADAHRLHAPTSRGGASVEETDQSHLATAGSTSSHSLQKYYITGEAEGFPATA
modifications: fusion protein Casp9trunc-ER(T2)
B3: Casp3-ER(T2): full length murine Caspase-3 fused to ER(T2) ligand binding domain, SEQ ID NO: 37 (protein)
chain: MENNKTSVDSKSINNFEVKTIHGSKSVDSGIYLDSSYKMDYPEMGICIIINNKNFHKSTGMSSRSGTDVDAANLRETFMGLKYQVRNKNDLTREDILELMDSVSKEDHSKRSSFVCVILSHGDEGVIYGTNGPVELKKLTSFFRGDYCRSLTGKPKLFIIQACRGTELDCGIETDSGTDEEMACQKIPVEADFLYAYSTAPGYYSWRNSKDGSWFIQSLCSMLKLYAHKLEFMHILTRVNRKVATEFESFSLDSTFHAKKQIPCIVSMLTKELYFYHLEPSAGDMRAANLWPSPLMIKRSKKNSLALSLTADQMVSALLDAEPPILYSEYDPTRPFSEASMMGLLTNLADRELVHMINWAKRVPGFVDLTLHDQVHLLECAWLEILMIGLVWRSMEHPVKLLFAPNLLLDRNQGKCVEGMVEIFDMLLATSSRFRMMNLQGEEFVCLKSIILLNSGVYTFLSSTLKSLEEKDHIHRVLDKITDTLIHLMAKAGLTLQQQHQRLAQLLLILSHIRHMSNKGMEHLYSMKCKNVVPLYDLLLEAADAHRLHAPTSRGGASVEETDQSHLATAGSTSSHSLQKYYITGEAEGFPATA
modifications: fusion gene Casp3-ER(T2)

Assays:
Assay type in all cases: cell-based, mouse
[1] = system: MEF5/N9 cells; assay: Visible phenotypic changes / viability of stably transfected MEF5/N9 clones on 4-OH-tamoxifen treatment; conditions: 10^−8 M 4-OH-tamoxifen, 24 h
Experimental: (§1) To generate stably transfected MEF5/N9 cells, 2·10^6 cells were coelectroporated with 32 μg ER(T2) fusion plasmid DNA linearised with ScaI and 8 μg pPgk-hygro-pA plasmid DNA linearised with XhoI and plated into two 96-well plates. The cells were grown in DMEM medium (Invitrogen) supplemented with 2 mM Glutamine and 10% fetal calf serum at 37° C., 5% CO2 in humid atmosphere, and passaged upon trypsinization. Two days after transfection the medium was supplemented with 250 U/ml of hygromycin (Calbiochem) for the selection of stable integrants. Upon the growth of resistant colonies these were individually expanded in the presence of hygromycin.
To examine 4-OH-tamoxifen-dependent cell death, 1·10^5 MEF5/N9 cells expressing ER(T2) fusion proteins were plated into each well of a six-well plate. The following day, for each sample the medium in two of four individual wells were replaced with medium supplemented with 10^−8 M 4-hydroxy-tamoxifen. 24 hours after induction with 4-OH-tamoxifen, cells were photographed through a Leica DMI6000B fluorescence microscope with phase contrast either at 10-fold or 20-fold magnification.
Since the responsiveness of the clones, transfected with the same construct, to 4-OH-tamoxifen differed only slightly from each other, only the results obtained from one clone for each construct are shown in the figure.

[2] = system: MEF5/N9 cells; assay: MTT cytotoxicity assay of stably transfected MEF5/N9 clones; conditions: 10^−8 M 4-OH-tamoxifen, 48 h
Experimental: as §1
To quantify 4-OH-tamoxifen-inducible cell death, we applied the colorimetric MTT assay (Mossman, J. Immunol. Methods, 65, 55 (1983)) allowing the quantification of cell survival. Cells (4·10^3) were plated on 96-well plates. The assay was carried out in three replicas for each sample treated with and without 4-OH-tamoxifen. After 12 h, medium was replaced either with fresh medium or with medium supplemented with 10^−8 M 4-OH-tamoxifen. Following 48 h of 4-OH-tamoxifen treatment, sterile filtered MTT reagent in PBS (Sigma) was added at the concentration of 0.5 mg/ml. Incubation occurred for 4 hours at 37° C. With ongoing reaction time, dark violet MTT formazan crystals appeared on the bottom of the wells containing living cells. The crystals were dissolved in 150 μl 0.04 N HCl/isopropanol to give a homogeneous blue solution suitable for absorbance measurement at a wavelength of 570 nm on the Synergy™ HT Multi-Detection Microplate Reader (BioTek).

[3] = system: MEF5/N9 cells; assay: Transient cotransfection of ER(T2) fusion expression vectors with β-galactosidase reporter; β-galactosidase activity in lysates; conditions: no 4-OH-tamoxifen; transient transfection 50 or 100 ng vector; relative to Cre-ER(T2) without 4-OH-tamoxifen
[4] = system: MEF5/N9 cells; assay: as above; conditions: 10^−8 M 4-OH-tamoxifen, 48 h; for relative β-galactosidase activity in presence of 4-OH-tamoxifen compared to the negative control: relative to Cre-ER(T2) without 4-OH-tamoxifen
Experimental: The transformed mouse embryonic fibroblast cell line MEF5/N9 (Schwenk et al., Nucleic Acids Research, 26(6) 1427-1432 (1998)) was obtained from Michel Aguet (University of Zurich, Switzerland). The cells were grown in DMEM medium (Life Technologies) supplemented with 2 mM […] and 10% fetal calf serum at 37° C., 5% CO2 in humid atmosphere and passaged upon trypsinization. One day before transient transfection 4·10^4 cells were plated into a 24-well plate (Falcon). For the transient transfection of MEF5/N9 cells with plasmids, each well received into 500 μl of medium a total amount of 150 ng or 200 ng supercoiled plasmid DNA complexed before with the FuGene6 transfection reagent (Roche Diagnostics GmbH, Mannheim, Germany) according to the manufacturer's protocol. Each 150 ng or 200 ng DNA preparation (FIG. 2 sample 1 to 11) contained 100 ng of the β-Galactosidase expression vector pCMV-β-gal-pA (pCMVβ, Clontech, FIG. 1G, SEQ ID NO: 56), and 100 ng of the fusion ER(T2) expression vectors to be tested (FIG. 2 sample 3-7, 10-11) and the control plasmids (FIG. 2 sample 1-3), except for the samples with the plasmids pCAG-Casp9full-ER(T2)-bpA (FIG. 2 sample 8) and pCAG-Casp9trunc-ER(T2)-bpA (FIG. 2 sample 9), respectively, that received 50 ng of the test vector. For each sample to be tested four individual wells were transfected. Five hours after the addition of the DNA preparations each well received additional 500 μl of growth medium. The following day, the medium of two wells of each sample was replaced by fresh medium. The other two wells received medium containing 10^−8 M 4-hydroxy-tamoxifen (Sigma). 48 hours after induction with 4-OH-tamoxifen, the cells of each well were lysed with 200 μl lysate reagent supplemented with protease inhibitors (Roche Diagnostics GmbH). The lysates were centrifuged and 50 μl were used to determine the β-galactosidase activities using the β-galactosidase reporter gene assay (Roche Diagnostics GmbH) according to the manufacturer's protocol in a microplate luminometer (Berthold Detection Systems GmbH). The mean value and standard deviation of the samples was calculated from the β-galactosidase RLU values obtained from the two transfected wells of each sample. The relative β-galactosidase activity was obtained by comparison to the negative control (pCAG-Cre-ER(T2)-bpA) without 4-OH-tamoxifen.
To investigate the cell death effect of the different ER(T2) fusion constructs quantitatively, we performed transient cotransfections of the ER(T2) fusion protein expression vectors together with a fixed amount of a reporter plasmid coding for β-galactosidase in MEF5/N9 fibroblast cells. Transfected cells were treated 12 hours after transfection with 4-OH-tamoxifen at a concentration of 10^−8 M. Following 48 hours of 4-OH-tamoxifen induction, the cells from the various samples were lysed and the activity of β-galactosidase in the lysates was determined by a chemiluminescence assay and expressed in “Relative Light Units” (RLU) (FIG. 2). As positive controls for 4-OH-tamoxifen-inducible cell death, we prepared samples transfected with the constructs pCAG-HAFas-ER(T2) or pCAG-MFas-ER(T2) together with the reporter plasmid and treatment with 4-OH-tamoxifen. As negative control for this assay served samples which received the reporter plasmid together with the expression vector pCAG-Cre-ER(T2) and that were treated with 4-OH-tamoxifen.
To determine the relative activity of the tested ER(T2) fusion constructs inducing apoptosis in the presence of 4-OH-tamoxifen, the RLU values of β-galactosidase activity were divided individually for each sample by the RLU value obtained from the sample which received the plasmid pCAG-Cre-ER(T2) but was not treated with 4-OH-tamoxifen (defined as negative control). The relative activity of the tested Caspase- or bax-ER(T2) fusion proteins was then compared to the negative control for 4-OH-tamoxifen-dependent cell death defined as an activity of 1.

Molecule	4-OH-tamoxifen-dependent cell death, phenotype of stable clones [1]	4-OH-tamoxifen-dependent cell death, phenotype of stable clones ([1]; listed as ERBax)	cell viability in the presence of 4-OH-tamoxifen (MTT) [2]	basal toxicity: relative β-galactosidase activity compared to the negative control in absence of 4-OH-tamoxifen [3]	4-OH-tamoxifen-dependent activity / toxicity in transient transfection (in words) [4]	4-OH-tamoxifen-dependent cell death, phenotype of stable clones ([1]; listed as Casp9truncER)	relative β-galactosidase activity in presence of 4-OH-tamoxifen compared to the negative control [4]	4-OH-tamoxifen-dependent cell death, phenotype of stable clones ([1]; listed as Casp3ER)
ER(T2)-Bax: spaceless C-terminal fusion of murine Bax to ER(T2), SEQ ID NO: 55; used as negative control in stable clones	did not respond to 4-OH-tamoxifen	not affected by the treatment with 4-OH-tamoxifen	not affected by treatment with 4-OH-tamoxifen	84%	no tamoxifen-dependent activity; also recorded: neither the N-terminal nor the C-terminal fusion of Bax to ER(T2) displayed any activity	–	–	–
Bax-ER(T2): N-terminal fusion of full length murine Bax to ER(T2) ligand binding domain, SEQ ID NO: 48	–	–	–	100%	neither the N-terminal nor the C-terminal fusion of Bax to ER(T2) displayed any activity	–	–	–
B1	–	–	–	52%	could not be regulated in presence of 4-OH-tamoxifen	–	–	–
B2	weaker susceptibility to 4-OH-tamoxifen	–	–	70%	–	substantial cell death	22%	–
B3	neither the two Fas-ER(T2) variants (see FIG. 4 H2, I2) nor Casp3-ER(T2) (FIG. 4 E2) were able to induce apoptosis in the presence of 4-OH-tamoxifen	–	not affected by treatment with 4-OH-tamoxifen	52%	low compared to the Caspase 8 or Caspase 9 ER(T2) fusion variants	–	28%	not affected by the treatment with 4-OH-tamoxifen
